Tests used:
[1] = biological target: recombinant Cas2C of Leptospira interrogans serovar Lai (rLinCas2C_Lai) (L. interrogans serovar Lai); assay: SEC; size-exclusion chromatography of the Ni-NTA purified recombinant protein; conditions not shown
[2] = biological target: recombinant Cas2C of Leptospira interrogans serovar Copenhageni (rLinCas2C) (L. interrogans serovar Copenhageni strain Fiocruz L1-130); assay: as above

stoichiometry N [1]	stoichiometry N [2]	Substance
3	–	recombinant Cas2C of Leptospira interrogans serovar Lai (rLinCas2C_Lai) (enzyme)
–	2	recombinant Cas2C of Leptospira interrogans serovar Copenhageni (rLinCas2C) (enzyme)
